Data published in paper PMC3834833 (Nucleic Acids Research, 2013).
Values joined by “and” are separate entries in the source; they are usually repeats but may differ in a detail not shown here. Equal entries are not always repeated.

B1: translin variant Nt-1 (I6A/F7A) (natural protein, human, UniProt Q15631 1-228, looked up)
chain: MSVSEAAVELQGFLAAEQDIREEIRKVVQSLEQTAREILTLLQGVHQGAGFQDIPKRCLKAREHFGTVKTHLTSLKTKFPAEQYYRFHEHWRFVLQRLVFLAAFVVYLETETLVTREAVTEILGIEPDREKGFHLDVEDYLSGVLILASELSRLSVNSVTAGDYSRPLHISTFINELDSGFRLLNLKNDSLRKRYDGLKYDVKKVEEVVYDLSIRGFNKETAAACVEK
notes: translin, human; mutant of the pQE-9 translin plasmid made by QuikChange site-directed mutagenesis; Same construct as m1 with the stated substitutions; also called N-terminal 1; source: E. coli, purified

Tests used:
[1] = target: the molecule itself; assay: glycerol gradient centrifugation; 10 ml linear 20-40% (v/v) glycerol gradient, 10 mM Tris-HCl pH 8.0, 100 mM NaCl, 1 mM EDTA, 2 mM DTT; SW-41 rotor, 38 000 rpm, 24 h, 8°C; fractions by SDS-PAGE and Coomassie; S value and molecular weight by comparison with protein markers; major oligomeric state
translin (wild type) = translin (wild type) (Homo sapiens, UniProt Q15631 1-228); assay: SAXS; translin octamer:RNA 1:1.5; Rg 47.2 vs 48.4 A free; SAXS: 10 mM Tris-HCl pH 8.0, 100 mM NaCl, 0.1 mM EDTA, 1 mM DTT, 5% glycerol; complex incubated 20 min at 25 C, measured at 10 C; conditions: protein: recombinant; tags: N-terminal His6 (pQE-9); chain copies: 8; single strand

Binder	stoichiometry N [1]	binding result (translin (wild type))
B1	4 subunits and 3.9 subunits	–
GUGUGUGUGUGUGUGUGUGUGUGU (ssRNA) [(GU)12]	–	binds
